Data taken from patent US7556938B1, “Nucleic acids encoding potassium channel interactors” (Millennium Pharmaceuticals, Inc., priority 1998, dated 2009).
Positions count from the first letter of the chain named.

T1: rKv4.3N (Rattus norvegicus, UniProt Q62897)
T1 construct: expressed in transfected cells; host or cells: yeast HF7c (bait), mated with Y187 (fish)
T1 sequence (Q62897 1-180): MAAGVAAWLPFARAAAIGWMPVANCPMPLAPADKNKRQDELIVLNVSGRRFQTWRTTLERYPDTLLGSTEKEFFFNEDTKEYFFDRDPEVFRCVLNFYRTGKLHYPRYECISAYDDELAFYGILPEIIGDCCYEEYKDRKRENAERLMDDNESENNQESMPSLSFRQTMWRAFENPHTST

T2: rKv4.2 (Rattus norvegicus, UniProt Q63881)
T2 construct: expressed in transfected cells; host or cells: CHO cells, transient transfection with GFP co-transfected
T2 sequence (Q63881 1-630): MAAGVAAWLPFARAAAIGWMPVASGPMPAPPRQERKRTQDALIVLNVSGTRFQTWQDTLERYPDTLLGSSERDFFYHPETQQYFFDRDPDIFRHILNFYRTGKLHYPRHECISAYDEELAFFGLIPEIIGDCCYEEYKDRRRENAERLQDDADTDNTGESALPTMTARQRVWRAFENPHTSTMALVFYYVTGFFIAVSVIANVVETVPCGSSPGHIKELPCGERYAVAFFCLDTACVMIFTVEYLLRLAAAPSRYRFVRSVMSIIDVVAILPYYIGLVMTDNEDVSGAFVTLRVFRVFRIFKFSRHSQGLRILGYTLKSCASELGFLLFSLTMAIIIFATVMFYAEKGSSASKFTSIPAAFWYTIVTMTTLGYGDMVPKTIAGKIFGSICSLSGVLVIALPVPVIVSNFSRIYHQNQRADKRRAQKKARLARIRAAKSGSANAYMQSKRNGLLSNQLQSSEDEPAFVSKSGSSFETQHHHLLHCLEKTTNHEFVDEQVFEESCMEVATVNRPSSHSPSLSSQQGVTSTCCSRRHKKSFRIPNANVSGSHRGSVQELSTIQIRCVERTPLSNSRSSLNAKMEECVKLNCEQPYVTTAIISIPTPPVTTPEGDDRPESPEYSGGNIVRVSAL

B1: KChIP2l: KChIP2 splice variant, rat KChIP2l (protein)
chain: MRGQGRKESLSESRDLDGSYDQLTGHPPGPSKKALKQRFLKLLPCCGPQALPSVSETLAAPASLRPHRPRPLDPDSVEDEFELSTVCHRPEGLEQLQEQTKFTRRELQVLYRGFKNECPSGIVNEENFKQIYSQFFPQGDSSNYATFLFNAFDTNHDGSVSFEDFVAGLSVILRGTIDDRLSWAFNLYDLNKDGCITKEEMLDIMKSIYDMMGKYTYPALREEAPREHVESFFQKMDRNKDGVVTIEEFIESCQQDENIMRSMQLFDNVI
B2: KChIP2m: KChIP2 splice variant m (protein)
chain: MRGQGRKESLSESRDLDGSYDQLTGHPPGPSKKALKQRFLKLLPCCGPQALPSVSENSVEDEFELSTVCHRPEGLEQLQEQTKFTRRELQVLYRGFKNECPSGIVNEENFKQIYSQFFPQGDSSNYATFLFNAFDTNHDGSVSFEDFVAGLSVILRGTIDDRLSWAFNLYDLNKDGCITKEEMLDIMKSIYDMMGKYTYPALREEAPREHVESFFQKMDRNKDGVVTIEEFIESCQQDENIMRSMQLFDNVI
B3: KChIP2C: KChIP2 splice variant, rat KChIP2C (protein)
chain: B2 chain with F248S, D249P, N250L, V251L, I252N
B4: KChIP2s: KChIP2 splice variant, human KChIP2s (protein)
chain: MRGQGRKESLSDSRDLDGSYDQLTDSVDDEFELSTVCHRPEGLEQLQEQTKFTRKELQVLYRGFKNECPSGIVNEENFKQIYSQFFPQGDSSTYATFLFNAFDTNHDGSVSFEDFVAGLSVILRGTVDDRLNWAFNLYDLNKDGCITKEEMLDIMKSIYDMMGKYTYPALREEAPREHVESFFQKMDRNKDGVVTIEEFIESCQKDENIMRSMQLFDNVI
B5: 8t: 8t polypeptide, splice variant of 9q (protein)
chain: MNRCPRRCRSPLGQAARSLYQLVTGSLSPDSVDDEFELSTVCHRPEGLEQLQEQTKFTRKELQVLYRGFKNECPSGIVNEENFKQIYSQFFPQGDSSTYATFLFNAFDTNHDGSVSFEDFVAGLSVILRGTVDDRLNWAFNLYDLNKDGCITKEEMLDIMKSIYDMMGKYTYPALREEAPREHVESFFQKMDRNKDGVVTIEEFIESCQKDENIMRSMQLFDNVI
B6: KChIP2: Potassium channel interacting protein KChIP2 (9ql) (protein)
chain: B1 chain
B7: KChIP3: Potassium channel interacting protein KChIP3 (p19) (protein)
chain: MQRTKEAMKASDGSLLGDPGRIPLSKREGIKWQRPRFTRQALMRCCLIKWILSSAAPQGSDSSDSELELSTVRHQPEGLDQLQAQTKFTKKELQSLYRGFKNECPTGLVDEDTFKLIYSQFFPQGDATTYAHFLFNAFDADGNGAIHFEDFVVGLSILLRGTVHEKLKWAFNLYDINKDGYITKEEMLAIMKSIYDMMGRHTYPILREDAPLEHVERFFQKMDRNQDGVVTIDEFLETCQKDENIMSSMQLFENVI

test system: rKv4.3; test: Two-electrode voltage clamp of Kv4.3 currents in Xenopus oocytes co-injected with KChIP cRNA; type: cell-based, rat; conditions: Kv4.3 co-expressed with the KChIP
Sequence (Q62897 1-487 limits assumed): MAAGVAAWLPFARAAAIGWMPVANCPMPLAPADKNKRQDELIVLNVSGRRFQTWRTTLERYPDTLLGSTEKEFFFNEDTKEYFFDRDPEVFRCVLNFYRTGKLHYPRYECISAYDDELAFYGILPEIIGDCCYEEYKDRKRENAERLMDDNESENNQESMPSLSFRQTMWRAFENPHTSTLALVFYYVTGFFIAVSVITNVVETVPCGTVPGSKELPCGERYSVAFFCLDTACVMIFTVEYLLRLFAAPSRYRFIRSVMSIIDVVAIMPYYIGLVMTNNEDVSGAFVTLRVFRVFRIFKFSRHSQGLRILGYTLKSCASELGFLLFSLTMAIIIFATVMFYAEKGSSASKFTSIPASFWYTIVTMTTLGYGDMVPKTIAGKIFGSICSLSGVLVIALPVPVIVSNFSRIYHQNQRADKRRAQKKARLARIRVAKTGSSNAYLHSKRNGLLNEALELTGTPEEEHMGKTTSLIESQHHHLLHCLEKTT
Procedure: Frogs underwent no more than two surgeries and surgeries were performed by well established techniques. Frogs were anesthetized with ice. Total cRNA (1-10 ng) was injected into stage IV Xenopus oocytes that were harvested the previous day. The Xenopus oocytes were incubated in ND96 containing (in mM) 96 NaCl, 2 KCl, 1.8 CaCl2, 1 MgCl2, 5 HEPES, pH 7.6, plus (Gentamycin 50 μg/ml) at 18° C. Xenopus oocytes were studied 3-7 days after injection. The two-electrode voltage-clamp recordings were performed in ND96 solution using a TURBO TEC 03 Clamp Amplifier (ALA Scientific Instruments, Westbury, N.Y.). Both electrodes were filled with 3 M KCl and had electrode resistances ranging from 0.2-1 MOhm. The current signals were filtered at 1000 Hz before transferred on a PC (Gateway, Calif.) using the PULSE software (HEKA, Germany).
To investigate whether the modulatory effects of these KChIPs are specific for Kv4 channels, KChIP1 was coexpressed with Kv1.4 and Kv2.1 in Xenopus oocytes. Xenopus oocytes were injected with 1-3 ng/oocyte of cRNA which was prepared using standard in vitro transcription techniques (Sambrook et al. 1989. Molecular Cloning: a laboratory manual, Cold Spring Harbor Press). Currents in Xenopus oocytes were measured with a two-electrode voltage clamp. […] As a final control for the KChIP effects and to verify that the KChIPs' effects on Kv4 currents are independent of expression system, the above kinetic analyses were repeated after expressing Kv4.3 and KChIP mRNAs in Xenopus oocytes. The effects KChIP1 on for Kv4.3 in the Xenopus oocyte system were strikingly similar to those on Kv4.2 in CHO cells (Table 1).

Molecule	Inactivation time constant (ms ± SEM)	Peak amplitude (μA ± SEM)
B1	87 ± 4 ms	51 ± 4 μA
B2	70 ± 2 ms	40 ± 4 μA
B3	74 ± 4 ms	44 ± 5 μA
B4	90 ± 3 ms	44 ± 3 μA

molecular target: T1, rKv4.3N; test: Yeast two-hybrid binding and specificity test, Kv4.3 N-terminal bait; conditions: not given
Procedure: The first 180 amino acids of rKv4.3 (described in Serdio P. et al. (1996) J. Neurophys 75:2174-2179) were amplified by PCR and cloned in frame into pGBT9 resulting in plasmid pFWA2, (hereinafter “bait”). This bait was transformed into the two-hybrid screening strain HF7c and tested for expression and self-activation. The bait was validated for expression by Western blotting.
Two-hybrid screens were carried out essentially as described in Bartel, P. et al. (1993) “Using the Two-Hybrid System to Detect Polypeptide-Polypeptide Interactions” in Cellular Interactions in Development: A Practical Approach, Hartley, D. A. ed. Oxford University Press, Oxford, pp. 153-179, with a bait-library pair of rkv4.3 bait-rat mid brain library. A filter disk beta-galactosidase (beta-gal) assay was performed essentially as previously described (Brill et al. (1994) Mol. Biol. Cell. 5:297-312). Clones that were positive for both reporter gene activity (His and beta-galactosidase) were scored and fish, plasmids were isolated from yeast, transformed into E. coli strain KC8, DNA plasmids were purified and the resulting plasmids were sequenced by conventional methods (Sanger F. et al. (1977) PNAS, 74: 5463-67).
Positive interactor clones were subjected to a binding specificity test where they were exposed to a panel of related and unrelated baits by a mating scheme previously described (Finley R. L. Jr. et al. (1994) PNAS, 91(26):12980-12984). Briefly, positive fish plasmids were transformed into Y187 and the panel of baits were transformed into HF7c. Transformed fish and bait cells were streaked out as stripes on selective medium plates, mated on YPAD plates, and tested for reporter gene activity.

binding to rKv4.3N in yeast two-hybrid assay	Molecule
able to bind to the Kv4.3 polypeptide	B2
able to bind to the Kv4.3 polypeptide	B5

molecular target: T2, rKv4.2; test: Patch-clamp of Kv4.2 currents in CHO cells coexpressing KChIPs; type: cell-based; conditions: coexpressed with Kv4.2
Procedure: HEK 293 and CHO cells were used for recordings 1-3 days after a transient transfection. Whole-cell currents were recorded from cells expressing GFP, identified by their green fluorescence. […] After Gigaseal and ruptured whole-cell configuration access, resistance was less than 10 MOhms. Whole-cell bath solutions were made from a 10× Hank's balanced salt solution (GibcoBRL) with the following final concentration (in mM): 138 NaCl, 5.4 KCl, 1.3 MgCl2, 1.3 CaCl2, 5.5 D-Glukos and 10 HEPES, pH 7.4. The intracellular electrode solution consisted of (in mM) 140 KCl, 10 HEPES, 10 EGTA, 0.5 MgCl2, pH 7.3. All chemicals were from Sigma (St. Louis, Mo.) or Fisher Scientific (Houston, Tex.). Membrane currents were recorded using a EPC9 patch-clamp amplifier (HEKA, Germany). Data were analyzed using Matlab (Natick, Ma), and leak subtracted if necessary. All experiments were done at room temperature.
Because PCIPs, e.g., KChIP1 (1v), KChIP2 (9ql), and KChIP3 (p19), colocalize and coassociate with Kv4 α-subunits in brain, another critical question was to determine whether these PCIPs alter the conductance properties of Kv4 channels. To address this issue, Kv4.2 and Kv4.3 were expressed alone and in combination with individual PCIPs. CHO cells were transiently-transfected with cDNA using the DOTAP lipofection method as described by the manufacturer (Boehringer Mannheim, Inc.). Transfected cells were identified by cotransfecting enhanced GFP along with the genes of interest and subsequently determining if the cells contained green GFP fluorescence. Currents in CHO cells were measured using the patch-clamp technique (Hamill et al. 1981. Pfluegers Arch. 391: 85-100).
First, the amplitude of the Kv4.2 current increased approximately 7.5 fold in the presence of KChIP1 (amplitude of Kv4.2 alone=0.60+/−0.096 nA/cell; Kv4.2+KChIP1=4.5+/−0.55 nA/cell). […] Finally, the kinetics of Kv4.2 inactivation slowed considerably when Kv4.2 was coexpressed with KChIP1 (inactivation time constant of Kv4.2 alone=28.2+/−2.6 ms; Kv4.2+KChIP1=104.1+/−10.4 ms), while channels recovered from inactivation much more rapidly in cells expressing both Kv4.2 and KChIP1 (recovery tau=53.6+/−7.6 ms) versus cells expressing Kv4.2 alone (recovery tau=272.2+/−26.1 ms).

Molecule	effects on Kv4.2 current density and kinetics
B6	strikingly similar to those produced by KChIP1
B7	strikingly similar to those produced by KChIP1
